No end group written: not given here.

Here are results for five sequences from patent US20150258192A1, “COMPOSITIONS AND METHODS FOR PREVENTING OR TREATING CHRONIC LUNG ALLOGRAFT DYSFUNCTION (CLAD) AND IDIOPATHIC PULMONARY FIBROSIS (IPF)” (priority 2014, published 2015).

Holding throughout (test): Kinase Profiling Assay
What all share (assay type): biochemical
Holding throughout (conditions): peptide 100 μM

One experiment addresses EGFR(L861Q)(h) (Homo sapiens, UniProt P00533, L861Q). The method in brief: (§1)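 Scintillation counting quantifies radiolabeled, positively charged substrate retained on a negatively charged filter after kinase reaction with labeled ATP; inhibitor peptide present.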
The next experiment addresses T1, EphA8(h) (Homo sapiens, UniProt P29322).
T1 sequence (P29322 28-1005): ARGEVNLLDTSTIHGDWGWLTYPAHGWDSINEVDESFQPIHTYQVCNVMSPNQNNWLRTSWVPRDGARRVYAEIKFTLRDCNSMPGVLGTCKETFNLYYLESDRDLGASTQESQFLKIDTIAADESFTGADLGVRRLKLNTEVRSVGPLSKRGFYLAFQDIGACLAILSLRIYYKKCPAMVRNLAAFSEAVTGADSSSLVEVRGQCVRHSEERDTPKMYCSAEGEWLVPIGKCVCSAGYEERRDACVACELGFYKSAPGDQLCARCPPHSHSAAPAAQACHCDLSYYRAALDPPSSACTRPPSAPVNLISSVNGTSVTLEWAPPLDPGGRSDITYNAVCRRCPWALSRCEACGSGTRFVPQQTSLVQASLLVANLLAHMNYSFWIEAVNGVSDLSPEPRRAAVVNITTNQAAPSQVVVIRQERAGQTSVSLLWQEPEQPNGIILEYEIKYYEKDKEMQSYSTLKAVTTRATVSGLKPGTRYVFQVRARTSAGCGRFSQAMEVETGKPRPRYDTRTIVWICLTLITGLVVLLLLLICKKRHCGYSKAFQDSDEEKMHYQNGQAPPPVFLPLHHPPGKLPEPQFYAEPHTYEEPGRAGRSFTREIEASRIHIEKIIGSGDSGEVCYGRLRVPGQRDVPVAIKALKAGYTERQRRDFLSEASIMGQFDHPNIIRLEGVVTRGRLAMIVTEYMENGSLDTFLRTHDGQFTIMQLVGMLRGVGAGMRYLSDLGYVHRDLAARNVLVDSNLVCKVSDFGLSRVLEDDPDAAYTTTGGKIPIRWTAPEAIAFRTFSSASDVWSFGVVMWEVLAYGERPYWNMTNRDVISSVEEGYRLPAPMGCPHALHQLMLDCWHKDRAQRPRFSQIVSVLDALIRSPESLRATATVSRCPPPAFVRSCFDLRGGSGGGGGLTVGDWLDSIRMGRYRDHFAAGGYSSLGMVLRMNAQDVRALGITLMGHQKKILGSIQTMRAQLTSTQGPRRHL
In outline: as §1

In the next experiment the target is T2, MLCK(h) (Homo sapiens, UniProt Q9H1R3).
T2 construct: purchased Millipore
T2 sequence (Q9H1R3 2-596 limits assumed): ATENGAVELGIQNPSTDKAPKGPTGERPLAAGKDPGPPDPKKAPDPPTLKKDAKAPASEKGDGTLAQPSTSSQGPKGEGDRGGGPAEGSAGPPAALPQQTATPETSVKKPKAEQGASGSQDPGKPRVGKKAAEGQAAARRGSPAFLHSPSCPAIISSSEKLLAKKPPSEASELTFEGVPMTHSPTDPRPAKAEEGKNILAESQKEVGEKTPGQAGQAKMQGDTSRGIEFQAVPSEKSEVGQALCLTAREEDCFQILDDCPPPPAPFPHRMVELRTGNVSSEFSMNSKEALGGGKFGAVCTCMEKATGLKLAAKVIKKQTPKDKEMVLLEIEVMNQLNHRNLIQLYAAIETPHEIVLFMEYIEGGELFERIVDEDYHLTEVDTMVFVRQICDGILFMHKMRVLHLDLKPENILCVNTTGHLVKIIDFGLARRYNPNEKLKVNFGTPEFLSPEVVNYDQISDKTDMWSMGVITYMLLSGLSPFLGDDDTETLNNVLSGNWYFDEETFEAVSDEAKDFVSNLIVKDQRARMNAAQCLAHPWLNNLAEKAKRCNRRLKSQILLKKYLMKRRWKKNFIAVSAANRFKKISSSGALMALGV
In outline:
as §1

In the next experiment the target is T3, MST1(h) (Homo sapiens, UniProt Q13043).
T3 construct: purchased Millipore
T3 sequence (Q13043 1-487): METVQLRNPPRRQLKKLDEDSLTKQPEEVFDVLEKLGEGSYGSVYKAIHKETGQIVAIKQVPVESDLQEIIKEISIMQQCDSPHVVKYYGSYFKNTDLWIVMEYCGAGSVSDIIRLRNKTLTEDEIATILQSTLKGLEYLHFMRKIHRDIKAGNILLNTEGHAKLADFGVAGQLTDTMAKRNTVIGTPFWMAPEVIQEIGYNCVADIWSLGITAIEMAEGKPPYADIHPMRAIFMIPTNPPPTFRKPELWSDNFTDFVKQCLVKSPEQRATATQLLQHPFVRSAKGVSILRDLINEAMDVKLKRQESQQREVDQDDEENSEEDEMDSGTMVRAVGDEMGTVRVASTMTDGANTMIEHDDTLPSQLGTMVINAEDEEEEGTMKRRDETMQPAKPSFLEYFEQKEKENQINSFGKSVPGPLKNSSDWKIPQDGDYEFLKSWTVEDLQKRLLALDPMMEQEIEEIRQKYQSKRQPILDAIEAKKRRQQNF
In outline:
as §1

In another experiment the target is T4, Src(T341M)(h) (Homo sapiens, UniProt P12931, T341M).
T4 construct: purchased Millipore
The method in brief: as §1

For the next experiment, the target named is T5, TAO1(h) (Homo sapiens, UniProt Q7L7X3).
T5 construct: purchased Millipore
T5 sequence (Q7L7X3 1-1001): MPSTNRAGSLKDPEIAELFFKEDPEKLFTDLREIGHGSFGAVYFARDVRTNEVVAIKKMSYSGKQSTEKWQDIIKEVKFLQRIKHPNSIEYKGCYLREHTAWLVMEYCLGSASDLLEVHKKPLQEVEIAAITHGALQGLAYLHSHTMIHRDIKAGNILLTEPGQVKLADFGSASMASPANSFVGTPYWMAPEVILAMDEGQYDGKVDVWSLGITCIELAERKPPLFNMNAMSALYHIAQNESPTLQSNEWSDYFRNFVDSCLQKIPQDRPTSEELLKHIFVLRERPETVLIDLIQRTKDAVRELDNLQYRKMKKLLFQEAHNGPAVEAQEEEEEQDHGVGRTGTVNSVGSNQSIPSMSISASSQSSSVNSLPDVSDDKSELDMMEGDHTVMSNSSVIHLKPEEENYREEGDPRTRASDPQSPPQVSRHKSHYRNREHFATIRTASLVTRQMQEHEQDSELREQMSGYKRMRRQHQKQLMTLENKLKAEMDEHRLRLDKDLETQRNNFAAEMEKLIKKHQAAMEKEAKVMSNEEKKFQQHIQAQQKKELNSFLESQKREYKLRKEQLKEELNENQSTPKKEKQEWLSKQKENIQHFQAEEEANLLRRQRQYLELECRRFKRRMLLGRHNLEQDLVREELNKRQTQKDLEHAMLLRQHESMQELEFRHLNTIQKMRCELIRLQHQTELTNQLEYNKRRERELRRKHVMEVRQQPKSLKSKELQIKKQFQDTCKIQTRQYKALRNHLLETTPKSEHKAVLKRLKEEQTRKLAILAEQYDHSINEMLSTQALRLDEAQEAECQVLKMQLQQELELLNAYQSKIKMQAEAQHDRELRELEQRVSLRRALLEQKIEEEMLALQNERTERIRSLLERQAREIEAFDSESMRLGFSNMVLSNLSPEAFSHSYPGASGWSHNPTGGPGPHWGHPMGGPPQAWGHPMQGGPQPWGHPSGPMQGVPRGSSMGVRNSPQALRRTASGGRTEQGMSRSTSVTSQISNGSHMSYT
In outline:
as §1

Consider FAKLAARLYRKALARQLGVAA [MMI-0300], for which the “% activity” value in the experiment with EGFR(L861Q)(h) turned out to be 25%; with EphA8(h) it was 93%; with MLCK(h) it was 2%; with MST1(h), 14%; with Src(T341M)(h), 70%; with TAO1(h), 82%.

Regarding “HRRIKAWLKKIKALARQLGVAA (Mammal) [MMI-0500]”, the “% activity” value in the experiment with EGFR(L861Q)(h) was found to be 15%; with EphA8(h), 337%; with MLCK(h), 0%; with MST1(h), 3%; in the experiment with Src(T341M)(h) it was 59%; in the experiment with TAO1(h), 24%.

With KAFAKLAARLYRKALARQLGVAA [MMI-0400], the “% activity” value with EGFR(L861Q)(h) is on record as 22%; in the experiment with EphA8(h) it was 146%; with MLCK(h), 1%; with MST1(h), 6%; with Src(T341M)(h), 76%; with TAO1(h), 73%.

Consider YARAAARQARAKALARQLGVAA [MMI-0100], for which the “% activity” value amounted to 53% at EGFR(L861Q)(h), 181% on EphA8(h), 85% at MLCK(h) and 99% at TAO1(h).

For the sequence “YARAAARQARAKALNRQLGVA (Mammal) [MMI-0200]”, the “% activity” value with EGFR(L861Q)(h) amounted to 74%; with EphA8(h) it was 133%; with MST1(h), 72%; with Src(T341M)(h) it was 56%.
